This is an account of results in paper PMC5785358, “The STENOFOLIA gene from Medicago alters leaf width, flowering time and chlorophyll content in transgenic wheat”.

Common to all, as to test: EMSA; 10 mM Tris pH 7.5, 50 mM KCl, 1 mM DTT, 2.5% glycerol, 0.05% NP-40, 5 mM MgCl2, 0.5 mM EDTA, 5 ng/uL poly(dI.dC), 1 ug protein, 100 fmol probe, room temperature 40 min
Holding throughout (settings): protein: recombinant; tags: MBP (N-terminal, pMAL-c2X); label: 3' biotin; blunt

Data set [1] addresses T1, MBP-STF full length (STENOFOLIA) (Medicago truncatula, UniProt G0ZGT3 1-358).
T1 sequence: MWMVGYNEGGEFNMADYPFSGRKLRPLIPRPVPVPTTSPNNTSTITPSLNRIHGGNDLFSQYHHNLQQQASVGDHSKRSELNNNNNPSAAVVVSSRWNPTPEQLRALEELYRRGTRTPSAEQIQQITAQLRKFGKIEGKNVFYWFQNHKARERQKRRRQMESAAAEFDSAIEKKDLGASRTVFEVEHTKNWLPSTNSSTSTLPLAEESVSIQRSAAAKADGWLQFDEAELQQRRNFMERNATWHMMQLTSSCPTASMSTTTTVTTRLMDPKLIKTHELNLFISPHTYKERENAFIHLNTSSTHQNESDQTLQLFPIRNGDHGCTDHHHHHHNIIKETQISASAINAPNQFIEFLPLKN

The target in the next data set is T2, MBP-STF S1 (Medicago truncatula, UniProt G0ZGT3 1-262).
T2 sequence: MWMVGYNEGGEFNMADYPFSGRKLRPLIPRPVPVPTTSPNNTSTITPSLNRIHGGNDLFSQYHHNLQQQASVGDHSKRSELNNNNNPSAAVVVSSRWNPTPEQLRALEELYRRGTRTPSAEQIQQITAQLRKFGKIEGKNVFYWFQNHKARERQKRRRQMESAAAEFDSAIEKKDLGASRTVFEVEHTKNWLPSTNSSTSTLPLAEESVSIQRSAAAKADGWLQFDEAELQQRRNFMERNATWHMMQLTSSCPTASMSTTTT

Another data set deals with T3, MBP-STF S3 (Medicago truncatula, UniProt G0ZGT3 1-90).
T3 sequence: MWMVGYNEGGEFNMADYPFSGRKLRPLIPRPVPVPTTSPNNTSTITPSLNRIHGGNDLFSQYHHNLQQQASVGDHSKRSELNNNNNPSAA

For a further data set, the target named is T4, MBP-STF S2 (Medicago truncatula, UniProt G0ZGT3 263-358).
T4 sequence: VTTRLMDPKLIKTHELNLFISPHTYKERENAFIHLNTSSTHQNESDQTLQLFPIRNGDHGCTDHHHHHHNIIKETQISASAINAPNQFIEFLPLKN

B1: TaBEL-A1 probe (dsDNA)
DNA 1: GCTTGCGTGTGTGTGCATCAGAGAGAAAGAGAGAGAGAGAGAGGCCTGCCGCCCAAGATCTCTCTTGATCAGTGCCGAGATCATCAATCAGGGGGGCCTGCCATCCAAGTGGGCATCTCCATTTTTCTTCCTCCTCGAGCTGGTTTCCGAGCCTGATAAAACCACCCTCCCCGGCCTCGCTCAACTGCTCCCCAGC
DNA 2: GCTGGGGAGCAGTTGAGCGAGGCCGGGGAGGGTGGTTTTATCAGGCTCGGAAACCAGCTCGAGGAGGAAGAAAAATGGAGATGCCCACTTGGATGGCAGGCCCCCCTGATTGATGATCTCGGCACTGATCAAGAGAGATCTTGGGCGGCAGGCCTCTCTCTCTCTCTCTTTCTCTCTGATGCACACACACGCAAGC
Consider B1, for which, in data set [1], the binding result is “binds”.

B2: Ta6SFT-A1 probe (dsDNA)
DNA 1: ACTCCACGCACTAACTTTTTTAATAAGGTCTTCTGTGTGGGGAAAAAGACGGGATCTCTCTCTCTAGACATAATCAAAAGGGATTGTTTAACTCACACCAAATTTGGAGGAAAACTTTGACAGCAAAACAGGGGAAAACAGAGTTTCCATAGCGGGTTGGGGGTTCACTTCACAGTGGCGTAGATTGGA
DNA 2: TCCAATCTACGCCACTGTGAAGTGAACCCCCAACCCGCTATGGAAACTCTGTTTTCCCCTGTTTTGCTGTCAAAGTTTTCCTCCAAATTTGGTGTGAGTTAAACAATCCCTTTTGATTATGTCTAGAGAGAGAGATCCCGTCTTTTTCCCCACACAGAAGACCTTATTAAAAAAGTTAGTGCGTGGAGT
In the case of B2, the binding result in data set [1] is given as “binds”; with MBP-STF S1, “binds”; with MBP-STF S3, “no binding”; with MBP-STF S2, “no binding”.

B3: TaKN1 probe (TaKN-B1 sequence printed) (dsDNA)
DNA 1: TACTGCAGTATTGCCCTCCAGCTTTTTCCTCTCGCTCCCCATCTCCTTCCCTCTAATGATAGCTTAGAGAGAGAAGGAGAAAAGGCTATTCCGCTCAAGGCAAGGCAGGCAGGTACCCTTCTCCTTCCCCAAACCCAAACCCTTTTTCTCTTTCTCTCCGCCCAAGAACTTCACCTCAAGCTCAATCCGTCT
DNA 2: AGACGGATTGAGCTTGAGGTGAAGTTCTTGGGCGGAGAGAAAGAGAAAAAGGGTTTGGGTTTGGGGAAGGAGAAGGGTACCTGCCTGCCTTGCCTTGAGCGGAATAGCCTTTTCTCCTTCTCTCTCTAAGCTATCATTAGAGGGAAGGAGATGGGGAGCGAGAGGAAAAAGCTGGAGGGCAATACTGCAGTA
For B3, in data set [1], the binding result was “binds”.

B4: TaACC-B1 probe (dsDNA)
DNA 1: TTCTTCCAGGTGAATACACAGCACTAACATGGCATAATCTGACAGGATAAATCTCCTTATCGATCTATCCTTAATGCTCATCTGCTCTCTCTCTCTCTCTCTCTCTCTTTTTCGGTGGTGCGTGCAGGTCCTGGACCACGGCATCTCGACGGAGCTGATGGACAAGGTGGAGAAGATGACCAAGG
DNA 2: CCTTGGTCATCTTCTCCACCTTGTCCATCAGCTCCGTCGAGATGCCGTGGTCCAGGACCTGCACGCACCACCGAAAAAGAGAGAGAGAGAGAGAGAGAGAGCAGATGAGCATTAAGGATAGATCGATAAGGAGATTTATCCTGTCAGATTATGCCATGTTAGTGCTGTGTATTCACCTGGAAGAA
Consider B4, for which, in data set [1], the binding result is on record as “binds”.

B5: TaACC-D1 probe (dsDNA)
DNA 1: TTCTTCCAGGTGAATACACCACAGTAGTAATATGGCATAATCTGACAAGATGAATCTCCTCATCGACCCATCCTTAATGTTGATTTGCTCTCTCTCTGTTTTCGGCGGTGCGTGCAGGTTCTGGACCACGGCATCTC
DNA 2: GAGATGCCGTGGTCCAGAACCTGCACGCACCGCCGAAAACAGAGAGAGAGCAAATCAACATTAAGGATGGGTCGATGAGGAGATTCATCTTGTCAGATTATGCCATATTACTACTGTGGTGTATTCACCTGGAAGAA
Take B5: the binding result in data set [1] is recorded as “binds”; with MBP-STF S3, “no binding”.
